The results in this text go back to paper PMC8633019 (2021).

The test deals with SM α-actin (Homo sapiens, UniProt P62736). Nature of the test: TIRF microscopy polymerization assay.

B1: MRTF-A (protein)
chain: MPPLKSPAAFHEQRRSLERARTEDYLKRKIRSRPERSELVRMHILEETSAEPSLQAKQLKLKRARLADDLNEKIAQRPGPMELVEKNILPVESSLKEAIIVGQVNYPKVADSSSFDEDSSDALSPEQPASHESQGSVPSPLEARVSEPLLSATSASPTQVVSQLPMGRDSREMLFLAEQPPLPPPPLLPPSLTNGTTIPTAKSTPTLIKQSQPKSASEKSQRSKKAKELKPKVKKLKYHQYIPPDQKQDRGAPPMDSSYAKILQQQQLFLQLQILNQQQQQHHNYQAILPAPPKSAGEALGSSGTPPVRSLSTTNSSSSSGAPGPCGLARQNSTSLTGKPGALPANLDDMKVAELKQELKLRSLPVSGTKTELIERLRAYQDQISPVPGAPKAPAATSILHKAGEVVVAFPAARLSTGPALVAAGLAPAEVVVATVASSGVVKFGSTGSTPPVSPTPSERSLLSTGDENSTPGDTFGEMVTSPLTQLTLQASPLQILVKEEGPRAGSCCLSPGGRAELEGRDKDQMLQEKDKQIEALTRMLRQKQQLVERLKLQLEQEKRAQQPAPAPAPLGTPVKQENSFSSCQLSQQPLGPAHPFNPSLAAPATNHIDPCAVAPGPPSVVVKQEALQPEPEPVPAPQLLLGPQGPSLIKGVAPPTLITDSTGTHLVLTVTNKNADSPGLSSGSPQQPSSQPGSPAPAPSAQMDLEHPLQPLFGTPTSLLKKEPPGYEEAMSQQPKQQENGSSSQQMDDLFDILIQSGEISADFKEPPSLPGKEKPSPKTVCGSPLAAQPSPSAELPQAAPPPPGSPSLPGRLEDFLESSTGLPLLTSGHDGPEPLSLIDDLHSQMLSSTAILDHPPSPMDTSELHFVPEPSSTMGLDLADGHLDSMDWLELSSGGPVLSLAPLSTTAPSLFSTDFLDGHDLQLHWDSCL
In turn, B1 came in with an equilibrium dissociation constant (Kd) of 3.3 µM.

Broadly, the Kd is a measure of binding affinity in units of concentration. A higher Kd goes with weaker binding.
